From PMC10786891, “Massively parallel profiling of RNA-targeting CRISPR-Cas13d”

T1: EsCas13d, nuclease-dead (Eubacterium siraeum, UniProt B0MS50, R295A;H300A;R849A;H854A)
T1 sequence: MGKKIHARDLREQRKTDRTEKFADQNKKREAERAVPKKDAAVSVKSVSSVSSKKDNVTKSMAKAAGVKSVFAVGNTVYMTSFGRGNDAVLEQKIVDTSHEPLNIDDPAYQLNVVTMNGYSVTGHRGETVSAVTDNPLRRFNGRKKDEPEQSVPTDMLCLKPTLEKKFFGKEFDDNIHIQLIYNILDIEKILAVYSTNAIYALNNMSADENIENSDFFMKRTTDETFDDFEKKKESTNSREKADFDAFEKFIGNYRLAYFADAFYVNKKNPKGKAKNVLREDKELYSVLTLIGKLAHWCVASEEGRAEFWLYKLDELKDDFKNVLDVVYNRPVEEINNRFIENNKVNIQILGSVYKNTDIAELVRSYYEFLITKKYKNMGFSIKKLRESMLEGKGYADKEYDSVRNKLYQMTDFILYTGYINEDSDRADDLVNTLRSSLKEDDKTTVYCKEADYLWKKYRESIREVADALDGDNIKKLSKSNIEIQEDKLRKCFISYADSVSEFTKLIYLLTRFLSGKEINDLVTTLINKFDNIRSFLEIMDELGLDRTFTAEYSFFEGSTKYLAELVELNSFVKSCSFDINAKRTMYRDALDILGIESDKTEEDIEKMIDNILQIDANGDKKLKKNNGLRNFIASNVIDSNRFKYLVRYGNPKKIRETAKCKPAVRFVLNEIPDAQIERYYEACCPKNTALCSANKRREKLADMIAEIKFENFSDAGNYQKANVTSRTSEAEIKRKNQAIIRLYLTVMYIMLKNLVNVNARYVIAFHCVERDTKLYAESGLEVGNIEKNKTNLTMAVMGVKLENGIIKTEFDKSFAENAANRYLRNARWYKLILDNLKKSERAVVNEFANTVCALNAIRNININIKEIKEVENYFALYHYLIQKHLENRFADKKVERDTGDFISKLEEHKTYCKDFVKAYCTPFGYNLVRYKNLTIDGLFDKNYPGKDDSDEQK

B1: target 2 MT 5'PFS GCA 3'PFS CCA (mixed)
RNA 1: CACCCGUGCAAAAUUGCAGGGGUCUAAAACCUUCUCCAAAUUGUUUCAUCCU
RNA 2: GGGAAUGGAUCCACAUCUACGAAUUCGCAAGGAUGAAACAAUUUGGAGAAGCCAAGAUCGGAAGAGCACACGU
B2: target 2 MT 5'PFS UUG 3'PFS AUG (mixed)
RNA 1: CACCCGUGCAAAAUUGCAGGGGUCUAAAACCUUCUCCAAAUUGUUUCAUCCU
RNA 2: GGGAAUGGAUCCACAUCUACGAAUUCUUGAGGAUGAAACAAUUUGGAGAAGAUGAGAUCGGAAGAGCACACGU
B3: target 2 MT 5'PFS AUA 3'PFS AAC (mixed)
RNA 1: CACCCGUGCAAAAUUGCAGGGGUCUAAAACCUUCUCCAAAUUGUUUCAUCCU
RNA 2: GGGAAUGGAUCCACAUCUACGAAUUCAUAAGGAUGAAACAAUUUGGAGAAGAACAGAUCGGAAGAGCACACGU
B4: target 2 MT 5'PFS GUC 3'PFS ACA (mixed)
RNA 1: CACCCGUGCAAAAUUGCAGGGGUCUAAAACCUUCUCCAAAUUGUUUCAUCCU
RNA 2: GGGAAUGGAUCCACAUCUACGAAUUCGUCAGGAUGAAACAAUUUGGAGAAGACAAGAUCGGAAGAGCACACGU
B5: target 2 MT 5'PFS GCG 3'PFS UAU (mixed)
RNA 1: CACCCGUGCAAAAUUGCAGGGGUCUAAAACCUUCUCCAAAUUGUUUCAUCCU
RNA 2: GGGAAUGGAUCCACAUCUACGAAUUCGCGAGGAUGAAACAAUUUGGAGAAGUAUAGAUCGGAAGAGCACACGU
B6: target 2 MT 5'PFS GUC 3'PFS ACG (mixed)
RNA 1: CACCCGUGCAAAAUUGCAGGGGUCUAAAACCUUCUCCAAAUUGUUUCAUCCU
RNA 2: GGGAAUGGAUCCACAUCUACGAAUUCGUCAGGAUGAAACAAUUUGGAGAAGACGAGAUCGGAAGAGCACACGU
B7: target 2 MT 5'PFS UUG 3'PFS AUU (mixed)
RNA 1: CACCCGUGCAAAAUUGCAGGGGUCUAAAACCUUCUCCAAAUUGUUUCAUCCU
RNA 2: GGGAAUGGAUCCACAUCUACGAAUUCUUGAGGAUGAAACAAUUUGGAGAAGAUUAGAUCGGAAGAGCACACGU
B8: target 2 MT 5'PFS AUG 3'PFS AAU (mixed)
RNA 1: CACCCGUGCAAAAUUGCAGGGGUCUAAAACCUUCUCCAAAUUGUUUCAUCCU
RNA 2: GGGAAUGGAUCCACAUCUACGAAUUCAUGAGGAUGAAACAAUUUGGAGAAGAAUAGAUCGGAAGAGCACACGU
B9: target 2 MT 5'PFS AUA 3'PFS AAU (mixed)
RNA 1: CACCCGUGCAAAAUUGCAGGGGUCUAAAACCUUCUCCAAAUUGUUUCAUCCU
RNA 2: GGGAAUGGAUCCACAUCUACGAAUUCAUAAGGAUGAAACAAUUUGGAGAAGAAUAGAUCGGAAGAGCACACGU
B10: target 2 MT 5'PFS AUG 3'PFS AAC (mixed)
RNA 1: CACCCGUGCAAAAUUGCAGGGGUCUAAAACCUUCUCCAAAUUGUUUCAUCCU
RNA 2: GGGAAUGGAUCCACAUCUACGAAUUCAUGAGGAUGAAACAAUUUGGAGAAGAACAGAUCGGAAGAGCACACGU
B11: target 2 MT 5'PFS UUG 3'PFS AUC (mixed)
RNA 1: CACCCGUGCAAAAUUGCAGGGGUCUAAAACCUUCUCCAAAUUGUUUCAUCCU
RNA 2: GGGAAUGGAUCCACAUCUACGAAUUCUUGAGGAUGAAACAAUUUGGAGAAGAUCAGAUCGGAAGAGCACACGU
B12: target 2 MT 5'PFS AUA 3'PFS AAA (mixed)
RNA 1: CACCCGUGCAAAAUUGCAGGGGUCUAAAACCUUCUCCAAAUUGUUUCAUCCU
RNA 2: GGGAAUGGAUCCACAUCUACGAAUUCAUAAGGAUGAAACAAUUUGGAGAAGAAAAGAUCGGAAGAGCACACGU
B13: target 2 MT 5'PFS AUG 3'PFS AAA (mixed)
RNA 1: CACCCGUGCAAAAUUGCAGGGGUCUAAAACCUUCUCCAAAUUGUUUCAUCCU
RNA 2: GGGAAUGGAUCCACAUCUACGAAUUCAUGAGGAUGAAACAAUUUGGAGAAGAAAAGAUCGGAAGAGCACACGU
B14: target 2 MT 5'PFS GUC 3'PFS ACU (mixed)
RNA 1: CACCCGUGCAAAAUUGCAGGGGUCUAAAACCUUCUCCAAAUUGUUUCAUCCU
RNA 2: GGGAAUGGAUCCACAUCUACGAAUUCGUCAGGAUGAAACAAUUUGGAGAAGACUAGAUCGGAAGAGCACACGU
B15: target 2 MT 5'PFS AUA 3'PFS AAG (mixed)
RNA 1: CACCCGUGCAAAAUUGCAGGGGUCUAAAACCUUCUCCAAAUUGUUUCAUCCU
RNA 2: GGGAAUGGAUCCACAUCUACGAAUUCAUAAGGAUGAAACAAUUUGGAGAAGAAGAGAUCGGAAGAGCACACGU
B16: target 2 MT 5'PFS CGA 3'PFS ACG (mixed)
RNA 1: CACCCGUGCAAAAUUGCAGGGGUCUAAAACCUUCUCCAAAUUGUUUCAUCCU
RNA 2: GGGAAUGGAUCCACAUCUACGAAUUCCGAAGGAUGAAACAAUUUGGAGAAGACGAGAUCGGAAGAGCACACGU
B17: target 2 MT 5'PFS UGU 3'PFS AAC (mixed)
RNA 1: CACCCGUGCAAAAUUGCAGGGGUCUAAAACCUUCUCCAAAUUGUUUCAUCCU
RNA 2: GGGAAUGGAUCCACAUCUACGAAUUCUGUAGGAUGAAACAAUUUGGAGAAGAACAGAUCGGAAGAGCACACGU
B18: target 2 MT 5'PFS GUC 3'PFS CAG (mixed)
RNA 1: CACCCGUGCAAAAUUGCAGGGGUCUAAAACCUUCUCCAAAUUGUUUCAUCCU
RNA 2: GGGAAUGGAUCCACAUCUACGAAUUCGUCAGGAUGAAACAAUUUGGAGAAGCAGAGAUCGGAAGAGCACACGU
B19: target 2 MT 5'PFS GUC 3'PFS ACC (mixed)
RNA 1: CACCCGUGCAAAAUUGCAGGGGUCUAAAACCUUCUCCAAAUUGUUUCAUCCU
RNA 2: GGGAAUGGAUCCACAUCUACGAAUUCGUCAGGAUGAAACAAUUUGGAGAAGACCAGAUCGGAAGAGCACACGU
B20: target 2 MT 5'PFS UUG 3'PFS CUU (mixed)
RNA 1: CACCCGUGCAAAAUUGCAGGGGUCUAAAACCUUCUCCAAAUUGUUUCAUCCU
RNA 2: GGGAAUGGAUCCACAUCUACGAAUUCUUGAGGAUGAAACAAUUUGGAGAAGCUUAGAUCGGAAGAGCACACGU
B21: target 2 MT 5'PFS GCA 3'PFS CCG (mixed)
RNA 1: CACCCGUGCAAAAUUGCAGGGGUCUAAAACCUUCUCCAAAUUGUUUCAUCCU
RNA 2: GGGAAUGGAUCCACAUCUACGAAUUCGCAAGGAUGAAACAAUUUGGAGAAGCCGAGAUCGGAAGAGCACACGU
B22: target 2 MT 5'PFS UUG 3'PFS AUA (mixed)
RNA 1: CACCCGUGCAAAAUUGCAGGGGUCUAAAACCUUCUCCAAAUUGUUUCAUCCU
RNA 2: GGGAAUGGAUCCACAUCUACGAAUUCUUGAGGAUGAAACAAUUUGGAGAAGAUAAGAUCGGAAGAGCACACGU
B23: target 2 MT 5'PFS UUU 3'PFS CUU (mixed)
RNA 1: CACCCGUGCAAAAUUGCAGGGGUCUAAAACCUUCUCCAAAUUGUUUCAUCCU
RNA 2: GGGAAUGGAUCCACAUCUACGAAUUCUUUAGGAUGAAACAAUUUGGAGAAGCUUAGAUCGGAAGAGCACACGU
B24: target 2 MT 5'PFS CGA 3'PFS ACC (mixed)
RNA 1: CACCCGUGCAAAAUUGCAGGGGUCUAAAACCUUCUCCAAAUUGUUUCAUCCU
RNA 2: GGGAAUGGAUCCACAUCUACGAAUUCCGAAGGAUGAAACAAUUUGGAGAAGACCAGAUCGGAAGAGCACACGU
B25: target 2 MT 5'PFS CGA 3'PFS ACA (mixed)
RNA 1: CACCCGUGCAAAAUUGCAGGGGUCUAAAACCUUCUCCAAAUUGUUUCAUCCU
RNA 2: GGGAAUGGAUCCACAUCUACGAAUUCCGAAGGAUGAAACAAUUUGGAGAAGACAAGAUCGGAAGAGCACACGU
B26: target 2 MT 5'PFS GUC 3'PFS CAC (mixed)
RNA 1: CACCCGUGCAAAAUUGCAGGGGUCUAAAACCUUCUCCAAAUUGUUUCAUCCU
RNA 2: GGGAAUGGAUCCACAUCUACGAAUUCGUCAGGAUGAAACAAUUUGGAGAAGCACAGAUCGGAAGAGCACACGU
B27: target 1 U3A,G13A (mixed)
RNA 1: CACCCGUGCAAAAAUGCAGGGGUCUAAAACUGAGCGGAUAACCUCUCUAUGG
RNA 2: GGGAAUGGAUCCACAUCUACGAAUUCGUACCAUAGAGAAGUUAUCCGCACACCGAGAUCGGAAGAGCACACGU
B28: target 1 C6U,A20U (mixed)
RNA 1: CACCCGUGCAAAAAUGCAGGGGUCUAAAACUGAGCGGAUAACCUCUCUAUGG
RNA 2: GGGAAUGGAUCCACAUCUACGAAUUCGUACCUUAGAGAGGUUAUCUGCUCACCGAGAUCGGAAGAGCACACGU

Target: T1, EsCas13d, nuclease-dead
Test: crRNA (strand 1, pre-loaded); Mg2+; 40 mM Tris-HCl pH 7.5, 150 mM NaCl, 6 mM MgCl2, 1 mM DTT, 0.1% Tween-20, 0.2 mg/ml BSA; 25 C; 10 min per concentration, then washed
Details: tags: His6-TwinStrep-SUMO cleaved; N-terminal SNAP kept (SNAP-Surface 488); label: 3' end held by stalled T7 RNA polymerase

| Binder | Kd |
| --- | --- |
| B1 | ~27 nM |
| B2 | 13.1 ± 1.5 nM |
| B3 | 5.2 ± 0.9 nM |
| B4 | 18.5 ± 2.7 nM |
| B5 | 14.9 ± 2.4 nM |
| B6 | 16.1 ± 1.3 nM |
| B7 | 11.9 ± 1 nM |
| B8 | 7.6 ± 1 nM |
| B9 | 8.6 ± 1.4 nM |
| B10 | 18 ± 6 nM |
| B11 | 14.1 ± 1.3 nM |
| B12 | 5 ± 0.8 nM |
| B13 | 7.8 ± 1.6 nM |
| B14 | 20.5 ± 2.1 nM |
| B15 | 5.9 ± 1.4 nM |
| B16 | 6.9 ± 1 nM |
| B17 | 24 ± 7 nM |
| B18 | 17.9 ± 2.4 nM |
| B19 | 28 ± 6 nM |
| B20 | 15.9 ± 2.1 nM |
| B21 | 10.3 ± 1.4 nM |
| B22 | 9.4 ± 0.8 nM |
| B23 | 8.9 ± 0.8 nM |
| B24 | ~38 nM |
| B25 | 10.8 ± 2.6 nM |
| B26 | 13.4 ± 2.5 nM |
| B27 | 7.7 ± 0.5 nM |
| B28 | 35 ± 5 nM |
